Measured values reported in article PMC2796168 (2009).

B1: CCL3 (ligand)
chain: SLAADTPTACCFSYTSRQIPQNFIADYFETSSQCSKPGVIFLTKRSRQVCADPSEEWVQKYVSDLELSA
B2: CCL4 (protein)
chain: APMGSDPPTACCFSYTARKLPRNFVVDYYETSSLCSQPAVVFQTKRSKQVCADPSESWVQEYVYDLELN
modifications: disulfide (positions not given here)
B3: CCL18 (protein)
chain: AQVGTNKELCCLVYTSWQIPQKFIVDYSETSPQCPKPGVILLTKRGRQICADPNKKWVQKYISDLKLNA
modifications: disulfide (positions not given here)
B4: Evasin-1 WT (natural protein)
chain: EDDEDYGDLGGCPFLVAENKTGYPTIVACKQDCNGTTETAPNGTRCFSIGDEGLRRMTANLPYDCPLGQCSNGDCIPKETYEVCYRRNWRDKKN
B5: CCL3/CCL5 chimera (ligand)
chain: ASLAADTPTACCFAYIARPLPRAHIKEYFYTSGKCSNPAVVFVTRKNRQVCANPEKKWVREYINSLEMS
B6: Δ4CCL3 (ligand)
chain: ADTPTACCFSYTSRQIPQNFIADYFETSSQCSKPGVIFLTKRSRQVCADPSEEWVQKYVSDLELSA

Legend:
Evasin-1 F14A W89A [1] = target: T1, Evasin-1 F14A W89A (Rhipicephalus sanguineus, UniProt P0C8E7 21-114, F14A | W89A); assay: SPR; immobilized CCL3
Evasin-1 WT [2] = target: B4; assay: SPR
Evasin-1 WT [3] = target: B4; assay: SPR
Evasin-1 F14A W89A [4] = target: T1, Evasin-1 F14A W89A; assay: SPR; immobilized CCL3; remark: listed apart in the source
CCL3 [5] = target: B1; assay: SPR; immobilized CCL3
CCL3 [6] = target: B1; assay: SPR; immobilized CCL3

| Binder | Kd (Evasin-1 F14A W89A [1]) [nM] | koff (Evasin-1 WT [2]) [s⁻¹] | Kd (Evasin-1 WT [3]) [nM] | koff (Evasin-1 F14A W89A [4]) [s⁻¹] | Kd (CCL3 [5]) [nM] | koff (CCL3 [6]) [s⁻¹] |
| --- | --- | --- | --- | --- | --- | --- |
| B1 | 32.2 | 0.00243 | 0.12 | 0.0146 | – | – |
| B2 | – | 0.0022 | 0.51 | – | – | – |
| B3 | – | 0.0111 | 3.21 | – | – | – |
| B4 | – | – | – | – | 8 | 0.00276 |
| B5 | – | 0.0038 | 1.02 | – | – | – |
| B6 | – | 0.00041 | 0.17 | – | – | – |
